Laboratory results taken from patent US20140275489A1 (Regeneron, published 2014).

These binders were tested against T1, full-length human APLNR (amino acids 1-380 of accession number NP-005152.1) (human, UniProt P35414 1-380) (assay: cell-based or functional assay).
T1 sequence (looked up): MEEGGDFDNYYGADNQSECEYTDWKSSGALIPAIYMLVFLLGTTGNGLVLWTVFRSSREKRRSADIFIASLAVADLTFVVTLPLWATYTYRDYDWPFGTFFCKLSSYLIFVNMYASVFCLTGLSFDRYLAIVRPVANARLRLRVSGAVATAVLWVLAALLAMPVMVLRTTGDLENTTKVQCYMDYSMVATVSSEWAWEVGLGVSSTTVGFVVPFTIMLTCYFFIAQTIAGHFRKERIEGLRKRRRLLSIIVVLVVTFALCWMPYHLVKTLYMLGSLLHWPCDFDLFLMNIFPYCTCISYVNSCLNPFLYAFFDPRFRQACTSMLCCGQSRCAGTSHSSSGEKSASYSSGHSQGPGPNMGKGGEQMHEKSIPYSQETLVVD
For QRPRLSHKGPMPFGGGGG [Apelin-13 + 5G], the “EC50 (M), CRE assay (cAMP reporter) in HEK293/CRE-luc/hAPLNR cells” value (“EC50 (M) … in HEK293/CRE-luc/hAPLNR cells” below) was 1.47e-10 M.
In the case of RPRLSHKGPMP [Apelin66-76], the “EC50 (M) … in HEK293/CRE-luc/hAPLNR cells” value is reported as 5.19e-12 M.
For RPRLSHKGPM [Apelin66-75], the “EC50 (M) … in HEK293/CRE-luc/hAPLNR cells” value was 2.17e-12 M.
With PRLSHKGPMPF [Apelin-11] the “EC50 (M) … in HEK293/CRE-luc/hAPLNR cells” value was 4.38e-10 M.
With PRLSHKGPM [Apelin67-75] the “EC50 (M) … in HEK293/CRE-luc/hAPLNR cells” value was 3.74e-07 M.
For PRLSHKGPMP [Apelin67-76], the “EC50 (M) … in HEK293/CRE-luc/hAPLNR cells” value was 1.14e-13 M.
